Laboratory results published in US20040126856A1, “Factor ixa: factor Vllla interaction and methods therefor” (priority 2004, published 2004).

Columns and labels:
[1] = target: T1, A2 subunit of factor VIIIa (Homo sapiens, UniProt P00451); assay: Apparent KdA2 of dEGR-IXa proteins: inhibition of IXaWT:A2 subunit interaction in the tenase system; assay type: biochemical; settings: for Kd: values from FIG. 3, read-out: App KdA2; for ΔG°A2: ΔG° = RTlnKd, 298 Kelvin
T1 construct: cleaved by thrombin at R372-S373, R740-S741, and R1689-S1690 to yield factor VIIIa
T1 sequence (P00451 392-759): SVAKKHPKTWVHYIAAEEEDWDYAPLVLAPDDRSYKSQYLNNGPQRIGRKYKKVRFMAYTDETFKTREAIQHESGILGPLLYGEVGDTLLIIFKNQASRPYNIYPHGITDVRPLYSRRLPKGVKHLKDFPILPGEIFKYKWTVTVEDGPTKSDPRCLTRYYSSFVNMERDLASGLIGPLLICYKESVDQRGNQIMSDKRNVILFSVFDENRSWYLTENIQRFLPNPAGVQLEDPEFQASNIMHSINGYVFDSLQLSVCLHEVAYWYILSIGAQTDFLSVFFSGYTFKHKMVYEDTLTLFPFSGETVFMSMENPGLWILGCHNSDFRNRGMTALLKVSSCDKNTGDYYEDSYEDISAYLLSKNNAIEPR
Procedure: Determination of KdA2 of Binding of dEGR-IXa Proteins to A2 Subunit.
The apparent Kd (termed KdA2) for binding of each dEGR-IXa protein to the A2 subunit was determined by its ability to inhibit factor IXaWT:A2 subunit interaction in the tenase complex as described earlier for intact factor VIIIa (Mather and Bajaj, 1999; Mather et al., 1997). The reactions were carried out as described for the EC50 experiments above except dEGR-IXa and IXaWT were mixed prior to addition of the A2 subunit; this ensured steady state conditions. Mixtures contained 100 nM IXaWT, 30 nM A2 subunit, 250 nM factor X, 25 μM PL, and various concentrations of dEGR-IXa proteins in TBS/BSA, pH 7.5 containing 5 mM CaCl2. The IC50 (concentration of inhibitor required for 50% inhibition) was determined by fitting the data to the IC50 four-parameter logistic equation of Halfman (1981) given below (Eq. 2). [formula]
where y is the rate of Xa formation in the presence of a given concentration of dEGR-IXa protein represented by x, a is the maximum rate of factor Xa formation in the absence of dEGR-IXa, and s is the slope factor. Each point was weighted equally, and the data were fitted to Equation 2 using the nonlinear regression analysis program GraFit from Erithacus Software. […] To obtain KdA2 values for the interaction of dEGR-IXa proteins with A2, we used the following equation (Eq. 3) as described by Cheng and Prusoff (1973) and further elaborated by Craig (1993). [formula]
where A is the concentration of IXaWT, and EC50 is the concentration of factor IXaWT that gives a 50% maximum response in the absence of the competitor at a specified concentration of factor X used in the experiment.

[2] = target: T1, A2 subunit of factor VIIIa; assay: Fluorescence quenching of the dansyl moiety in dEGR-IXa by the A2 subunit; assay type: binding; settings: for Change in dansyl fluorescence emission intensity on titration with A2 subunit: 100 μM PL (FIG. 4)
Procedure: Fluorescence Quenching of the Dansyl Moiety in dEGR-IXa by the A2 Subunit.
The effect of the A2 subunit on the emission intensity of the dansyl moiety in each dEGR-IXa protein was determined using the SLM AB2 spectrofluorometer. Each reaction mixture contained 220 nM dEGR-IXa in 20 mM Hepes, pH 7.2, 100 mM NaCl, 5 mM CaCl2, 0.01% Tween, 200 μg/ml BSA and 100 μM PL vesicles. The excitation wavelength was 340 nm (slit width, 8 nm) and the emission wavelength was 540 nm (slit width; 8 nm). First, blank values (in triplicate) were obtained for the buffer containing PL. dEGR-IXa was then added and the emission intensity in the absence of the A2 subunit was recorded. Each reaction mixture was subsequently titrated with the A2 subunit and the emission readings (in triplicate) were obtained at each time point. The fluorescence emission intensity at each point was corrected for increases in the reaction volume prior to analysis of the data. […] Data are presented as F/F0 where F0 is the emission intensity in the absence of A2 subunit and F is the intensity at a given A2 subunit concentration.

| Substance | Kd [1] [nM] | ΔG°A2 [1] [kcal/mol] | Change in dansyl fluorescence emission intensity on titration with A2 subunit ([2]; 220 nM dEGR-IXa protein) | Plateau value for F/F0 ([2]; bimolecular association model fit, 220 nM dEGR-IXa protein, 100 μM PL) | Kd ([2]; bimolecular association model fit, read-out: Apparent KdA2 from fluorescence quenching) [nM] | Change in ΔG°A2 between the mutant and WT [1] [kcal/mol] | Fold-change in apparent KdA2 (mutant/WT) [1] |
| --- | --- | --- | --- | --- | --- | --- | --- |
| IXaWT: activated recombinant wild-type factor IX (IXWT) | 100 ± 11 | 9.54 | dose-dependent decrease | 0.59±0.05 | ~100 |  |  |
| IXaR333Q: activated factor IX point mutant in which Arg333 is replaced by Gln | 1850 ± 82 | 7.82 | little if any change |  |  | 1.72 | ~15 |
